Results reported in paper PMC6251713 (Immunity, 2018).

B3: human IFIT1 (natural protein, UniProt P09914-1 1-478, looked up)
chain: MSTNGDDHQVKDSLEQLRCHFTWELSIDDDEMPDLENRVLDQIEFLDTKYSVGIHNLLAYVKHLKGQNEEALKSLKEAENLMQEEHDNQANVRSLVTWGNFAWMYYHMGRLAEAQTYLDKVENICKKLSNPFRYRMECPEIDCEEGWALLKCGGKNYERAKACFEKVLEVDPENPESSAGYAISAYRLDGFKLATKNHKPFSLLPLRQAVRLNPDNGYIKVLLALKLQDEGQEAEGEKYIEEALANMSSQTYVFRYAAKFYRRKGSVDKALELLKKALQETPTSVLLHHQIGLCYKAQMIQIKEATKGQPRGQNREKLDKMIRSAIFHFESAVEKKPTFEVAHLDLARMYIEAGNHRKAEENFQKLLCMKPVVEETMQDIHFHYGRFQEFQKKSDVNAIIHYLKAIKIEQASLTRDKSINSLKKLVLRKLRRKALDLESLSLLGFVYKLEGNMNEALEYYERALRLAADFENSVRQGP
B5: human IFIT3 (natural protein, UniProt O14879 1-490, looked up)
chain: MSEVTKNSLEKILPQLKCHFTWNLFKEDSVSRDLEDRVCNQIEFLNTEFKATMYNLLAYIKHLDGNNEAALECLRQAEELIQQEHADQAEIRSLVTWGNYAWVYYHLGRLSDAQIYVDKVKQTCKKFSNPYSIEYSELDCEEGWTQLKCGRNERAKVCFEKALEEKPNNPEFSSGLAIAMYHLDNHPEKQFSTDVLKQAIELSPDNQYVKVLLGLKLQKMNKEAEGEQFVEEALEKSPCQTDVLRSAAKFYRRKGDLDKAIELFQRVLESTPNNGYLYHQIGCCYKAKVRQMQNTGESEASGNKEMIEALKQYAMDYSNKALEKGLNPLNAYSDLAEFLETECYQTPFNKEVPDAEKQQSHQRYCNLQKYNGKSEDTAVQHGLEGLSISKKSTDKEEIKDQPQNVSENLLPQNAPNYWYLQGLIHKQNGDLLQAAKCYEKELGRLLRDAPSGIGSIFLSASELEDGSEEMGQGAVSSSPRELLSNSEQLN

How the values were obtained:
[1] = target: T1, maltose binding protein (MBP)-tagged IFIT1 (human, UniProt P09914-1 1-478); assay: pull-down
T1 sequence (looked up): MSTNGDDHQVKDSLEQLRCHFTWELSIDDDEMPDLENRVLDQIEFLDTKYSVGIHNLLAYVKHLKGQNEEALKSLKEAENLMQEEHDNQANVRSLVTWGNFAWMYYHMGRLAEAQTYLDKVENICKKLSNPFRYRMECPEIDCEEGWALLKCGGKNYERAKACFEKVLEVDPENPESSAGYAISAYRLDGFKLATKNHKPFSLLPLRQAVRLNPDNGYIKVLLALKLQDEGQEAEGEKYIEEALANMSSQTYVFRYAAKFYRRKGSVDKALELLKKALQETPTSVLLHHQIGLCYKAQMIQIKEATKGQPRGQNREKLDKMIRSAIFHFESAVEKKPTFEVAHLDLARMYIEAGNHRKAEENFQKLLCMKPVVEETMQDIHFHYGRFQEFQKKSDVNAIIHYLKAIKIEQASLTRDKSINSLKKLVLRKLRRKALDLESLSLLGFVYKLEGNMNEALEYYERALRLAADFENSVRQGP

[2] = target: B5; assay: ITC
[3] = target: B3; assay: ITC

B1: chimeric construct Ifit3-IFIT3CTD (other, mouse | human, UniProt Q64345 1-403, looked up)
chain: MSEVNRESLEAILPQLKCHFTWNLFREGSMSSHMEDRVCNQVEHLNSEEKATMYDLLAYIKHLDGESKAALECLGQAEDLRKSEHNDQSEIRRLVTWGNYAWIYYHMGRLSEAQAYVDKVRQVCQKFANPYSMECPELECEEGWTRLKCGRNERAKMCFEKALEEKPKDPECSSGMAIAMFRLEEKPEKQFSVDALKQAMELNPQNQYLKVLLALKLLRMGEEAEGERLIKDALGKAPNQTDVLQKAAQFYKKKGNLDRAIELLGKALRSTVNNSPLYSLVMCRYREILEQLQNKGDADSSERRQRMAELRRLTMEFMQKTLQRRRSPLNSYSDLIDFPEVERCYQMVISKESPDVEEEDLYERYCNLQEYHRKSEDLAALECLLQFPRNERSIEKEEVKEQTQNVSENLLPQNAPNYWYLQGLIHKQNGDLLQAAKCYEKELGRLLRDAPSGIGSIFLSASELEDGSEEMGQGAVSSSPRELLSNSEQLN
binding result [1]: binds

B2: IFIT1 RNA binding mutant (R38A and K151A) (natural protein, human, UniProt P09914-1 1-478, looked up)
chain: MSTNGDDHQVKDSLEQLRCHFTWELSIDDDEMPDLENAVLDQIEFLDTKYSVGIHNLLAYVKHLKGQNEEALKSLKEAENLMQEEHDNQANVRSLVTWGNFAWMYYHMGRLAEAQTYLDKVENICKKLSNPFRYRMECPEIDCEEGWALLACGGKNYERAKACFEKVLEVDPENPESSAGYAISAYRLDGFKLATKNHKPFSLLPLRQAVRLNPDNGYIKVLLALKLQDEGQEAEGEKYIEEALANMSSQTYVFRYAAKFYRRKGSVDKALELLKKALQETPTSVLLHHQIGLCYKAQMIQIKEATKGQPRGQNREKLDKMIRSAIFHFESAVEKKPTFEVAHLDLARMYIEAGNHRKAEENFQKLLCMKPVVEETMQDIHFHYGRFQEFQKKSDVNAIIHYLKAIKIEQASLTRDKSINSLKKLVLRKLRRKALDLESLSLLGFVYKLEGNMNEALEYYERALRLAADFENSVRQGP
Kd [2]: 2.1 ± 6 nM

B3
Kd [2]: 1.5 ± 2 nM

B4: IFIT3 403–490 (IFIT3CTD) (domain or fragment, human, UniProt O14879 403-490, looked up)
chain: QNVSENLLPQNAPNYWYLQGLIHKQNGDLLQAAKCYEKELGRLLRDAPSGIGSIFLSASELEDGSEEMGQGAVSSSPRELLSNSEQLN
Kd [3]: 1.4 ± 3.1 nM
dH [3]: -17 kcal/mol
stoichiometry N [3]: 0.97 ± 0.03

B5
dH [3]: -13 kcal/mol
stoichiometry N [3]: 0.93 ± 0.01
